Entries after “also recorded” stand apart in the source; their conditions may differ.

Experimental findings from patent publication US12385914B2, “CRY1-clock-BMAL1 complex-disrupting agents and methods of identifying and using same” (The Regents of the University of California, priority 2017, dated 2025) are described below.

The assay has as its target T1, CRY1-CLOCK PAS-B domain complex (Mus musculus, UniProt P97784).
T1 construct: His6 (N, cleaved yes); made in house; host or cells: CRY1 PHR: Sf9 insect cells (baculovirus)
T1 sequence (P97784 with tags, fused parts or gaps): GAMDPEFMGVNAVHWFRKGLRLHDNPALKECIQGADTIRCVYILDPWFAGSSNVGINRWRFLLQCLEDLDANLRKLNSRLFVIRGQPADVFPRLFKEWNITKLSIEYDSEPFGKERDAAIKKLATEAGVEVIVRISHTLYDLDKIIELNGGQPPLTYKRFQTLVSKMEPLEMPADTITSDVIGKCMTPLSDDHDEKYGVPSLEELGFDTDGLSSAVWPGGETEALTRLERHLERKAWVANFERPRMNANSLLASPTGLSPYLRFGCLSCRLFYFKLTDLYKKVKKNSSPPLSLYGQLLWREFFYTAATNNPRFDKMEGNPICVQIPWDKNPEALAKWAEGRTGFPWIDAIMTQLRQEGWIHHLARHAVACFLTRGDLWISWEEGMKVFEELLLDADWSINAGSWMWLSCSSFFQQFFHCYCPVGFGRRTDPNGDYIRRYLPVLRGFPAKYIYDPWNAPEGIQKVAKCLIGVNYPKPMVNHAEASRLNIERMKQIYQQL
Kind of assay: Fluorescence polarization (FP)-based displacement assay of labeled CLOCK PAS-B from CRY1 PHR. Conditions: 100 μM peptide; 20 nM CLOCK PAS-B probe and 4 μM CRY1 PHR; triplicate wells; FIG. 13. The format is binding. The procedure: Described in this example is a fluorescence polarization (FP)-based displacement assay developed by the inventors for identifying agents that disrupt the CRY1-CLOCK-BMAL1 ternary complex.
CRY1 PHR and CLOCK PAS-B domain fluorescently labeled at its N-terminus were prepared as described in the preceding examples. Equipment/Reagents included the following: Greiner 384 Well Assay Plate, 120 μl rounded square wells, flat bottom, black polystyrene; Envision 2103 Multilabel Reader (2103-0020); Fluorescence Polarization (FP) assay buffer (50 mM Bis-Tris Propane, 100 mM NaCl, 2 mM TCEP, 0.05% Tween-20, 0.5% DMSO, pH 7.5); and GraphPad Prism (version 6 or higher). All assay components were buffer exchanged into FP buffer.
A stock assay mixture of 8 μM CRY1 and 40 nM labeled CLOCK PAS-B was incubated at 4° C. overnight. Equal volumes (half of final well volume) stock assay mixture was dispensed into wells of the Greiner 384 Well Assay Plate, reserving wells for appropriate controls. […] Fluorescence polarization was measured using an Envision 2013 plate reader.
A labeled CLOCK PAS-B-only control of 20 nM was used to determine the G-factor for FP. The G-factor should be variable “G” such that Fluorescence polarization (FP)=1000*(S−G*P)/(S+G*P). […] G=(S/P)*(1−27/1000)/(1+27/1000), with S being the parallel fluorescence intensity, and P being the perpendicular fluorescence intensity. […]

Regarding “peptide encoded by CRY1 Exon 11: 23 residue peptide encoded by human CRY1 Exon 11 (residues 530-552), sequence CSQGSG1LHYAHGDSQQTHLLK; positive control inhibitor (CSQGSGILHYAHGDSQQTHLLK; listed as Homo sapiens)”, the “displacement of CLOCK PAS-B from the CRY1 PHR” value is reported as “displaced CLOCK PAS-B from the CRY1 PHR; also recorded: able to displace CLOCK PAS-B from the CRY1 PHR”.
